Patent US20220110936A1, “PHARMACEUTICAL COMPOSITION FOR TREATMENT OF NEURODEGENERATIVE DISEASES OR DISEASES CAUSED BY ABNORMALITY OF RNA BINDING PROTEIN AND APPLICATIONS THEREOF” (Shanghai Institute of Organic Chemistry, Chinese Academy of …, priority 2019, published 2022)

Tested on: hnRNP A1
Experiment: Immunoprecipitation/WB of hnRNP A1-Flag from HeLa cells with PARG added to the IP system
Format: biochemical, human
Procedure: The steps of HeLa cell culture and plasmid transfection are as described in Example 1. To increase the level of PARylation in HeLa cells after transfection with the plasmids described in 3.1.1, the cell culture medium was removed before collection, 500 μM hydrogen peroxide (diluted in PBS) was added to the cells followed by incubating for 10 min at 37° C. The stimulated HeLa cells can be used for subsequent experiments.
Cells treated according to 3.1.2 were lysed with the following lysis buffer: 25 mM Tris-HCl pH 7.4, 150 mM NaCl, 1% NP-40, 1 mM EDTA, 5% glycerol, protease inhibitor (Roche), 20 μM Olaparib (Selleck) and 8 μM ADP-HPD (Millopore). For enrichment of TDP-43 with HA tag, the lysate was added with HA antibody (Mouse anti-HA (Proteintech)) for overnight incubation at 4° C. followed by enrichment of primary antibody-sample complexes with Dynabeads® Protein G beads (Novex) for 2 hours at room temperature; for Flag-tagged hnRNP Al, the lysate was added directly to anti-FLAG® M2 Affinity Gel (Sigma) followed by incubation at 4° C. To ablate the polyribose moiety in vitro, 1μ purified PARG protein (Sigma) was added to a mixture of anti-FLAG® M2 Affinity Gel (Sigma) and cell lysate, and incubated for 1 h at 37° C. After incubation, the product was washed 3-5 times with lysis buffer, and added with 4×LDS sample buffer (Invitrogen) and boiled at 95° C. for subsequent studies. […]

B1: PARG protein: purified PARG protein (Sigma), poly(ADP-ribose) glycohydrolase (protein, UniProt Q86W56 1-976, looked up)
Poly(ADP-ribose) …: MNAGPGCEPCTKRPRWGAATTSPAASDARSFPSRQRRVLDPKDAHVQFRVPPSSPACVPGRAGQHRGSATSLVFKQKTITSWMDTKGIKTAESESLDSKENNNTRIESMMSSVQKDNFYQHNVEKLENVSQLSLDKSPTEKSTQYLNQHQTAAMCKWQNEGKHTEQLLESEPQTVTLVPEQFSNANIDRSPQNDDHSDTDSEENRDNQQFLTTVKLANAKQTTEDEQAREAKSHQKCSKSCDPGEDCASCQQDEIDVVPESPLSDVGSEDVGTGPKNDNKLTRQESCLGNSPPFEKESEPESPMDVDNSKNSCQDSEADEETSPGFDEQEDGSSSQTANKPSRFQARDADIEFRKRYSTKGGEVRLHFQFEGGESRTGMNDLNAKLPGNISSLNVECRNSKQHGKKDSKITDHFMRLPKAEDRRKEQWETKHQRTERKIPKYVPPHLSPDKKWLGTPIEEMRRMPRCGIRLPLLRPSANHTVTIRVDLLRAGEVPKPFPTHYKDLWDNKHVKMPCSEQNLYPVEDENGERTAGSRWELIQTALLNKFTRPQNLKDAILKYNVAYSKKWDFTALIDFWDKVLEEAEAQHLYQSILPDMVKIALCLPNICTQPIPLLKQKMNHSITMSQEQIASLLANAFFCTFPRRNAKMKSEYSSYPDINFNRLFEGRSSRKPEKLKTLFCYFRRVTEKKPTGLVTFTRQSLEDFPEWERCEKPLTRLHVTYEGTIEENGQGMLQVDFANRFVGGGVTSAGLVQEEIRFLINPELIISRLFTEVLDHNECLIITGTEQYSEYTGYAETYRWSRSHEDGSERDDWQRRCTEIVAIDALHFRRYLDQFVPEKMRRELNKAYCGFLRPGVSSENLSAVATGNWGCGAFGGDARLKALIQILAAAAAERDVVYFTFGDSELMRDIYSMHIFLTERKLTVGDVYKLLLRYYNEECRNCSTPGPDIKLYPFIYHAVESCAETADHSGQRTGT
- amount of endogenous TDP-43 protein co-precipitated with hnRNP A1 (added to the IP system): significantly reduced
- PARylation level of hnRNP A1 itself and PARylated proteins that interact with it (hydrogen peroxide-stimulated HeLa, added to the IP system for 1 h): significantly reduced
